The source of these data is article PMC6023931 (Nature Communications, 2018).

This data set deals with the molecule itself. The data set is described as follows: SEC-MALS; samples at 1 mg/ml, Superdex 200 Increase 10/300, 20 mM Tris-HCl, 150 mM NaCl, 0.5 mM TCEP, pH 8.0; run in triplicates. Background: In gel filtration, larger molecules generally elute earlier.

Changes are numbered by the printed parent chain. Numbers in names are those of the source.

B1: ΔN-TLK2, unphosphorylated (N-terminal deletion, with coiled-coil region, kinase domain and C-tail) (domain or fragment, human, UniProt Q86UE8 191-772, looked up)
chain: TEHSCSSQKQISIQHRQTQSDLTIEKISALENSKNSDLEKKEGRIDDLLRANCDLRRQIDEQQKMLEKYKERLNRCVTMSKKLLIEKSKQEKMACRDKSMQDRLRLGHFTTVRHGASFTEQWTDGYAFQNLIKQQERINSQREEIERQRKMLAKRKPPAMGQAPPATNEQKQRKSKTNGAENETPSSGNTELKDTAPALGAHSLLRLTLAEYHEQEEIFKLRLGHLKKEEAEIQAELERLERVRNLHIRELKRIHNEDNSQFKDHPTLNDRYLLLHLLGRGGFSEVYKAFDLTEQRYVAVKIHQLNKNWRDEKKENYHKHACREYRIHKELDHPRIVKLYDYFSLDTDSFCTVLEYCEGNDLDFYLKQHKLMSEKEARSIIMQIVNALKYLNEIKPPIIHYDLKPGNILLVNGTACGEIKITDFGLSKIMDDDSYNSVDGMELTSQGAGTYWYLPPECFVVGKEPPKISNKVDVWSVGVIFYQCLYGRKPFGHNQSQQDILQENTILKATEVQFPPKPVVTPEAKAFIRRCLAYRKEDRIDVQQLACDPYLLPHIRKSVSTSSPAGAAIASTSGASNNSSSN
notes: Tousled-like kinase 2 (TLK2), human; lacks the 1-190 N-terminal fragment, holds the 191-450 region around the CC domains, the kinase domain and the C-tail; the text says once '1-191' and once '1-190' for the missing segment; also called TLK2L; source: E. coli NiCo21(DE3) or Rosetta (DE3) pLysS, co-expressed with lambda phosphatase, purified (Ni-NTA, monoQ, SEC)
For orientation: stoichiometry N means a count of units in the complex or per binding partner. In the case of B1, the “stoichiometry N” value was 2.

B2: ΔN-TLK2-KD, kinase-dead ΔN-TLK2 (D613A) (domain or fragment, human, UniProt Q86UE8 191-772, looked up)
chain: B1 chain with D423A
notes: Tousled-like kinase 2 (TLK2), human; ΔN-TLK2 (lacks the 1-190 N-terminal fragment) with the D613A mutation; also called ΔN-TLK-KD; kinase-dead homodimer; source: E. coli NiCo21(DE3) or Rosetta (DE3) pLysS, purified
As to B2, the binding result is “binds”.

B3: ΔN-TLK2-p, phosphorylated ΔN-TLK2 (domain or fragment, human, UniProt Q86UE8 191-772, looked up)
chain: B1 chain
modifications: autophosphorylated (not co-expressed with the lambda phosphatase); 41 phosphosites out of 67 possible Ser/Thr sites, mapped in Fig. 3c
notes: Tousled-like kinase 2 (TLK2), human; lacks the 1-190 N-terminal fragment, holds the CC region, the kinase domain and the C-tail; also called active homodimer (ΔN-TLK2); source: E. coli NiCo21(DE3) or Rosetta (DE3) pLysS, without lambda phosphatase, purified (Ni-NTA, monoQ, heparin, SEC)
On to B3, for which the binding result was “binds”.
